Our source for the Kd values is article PMC7644011.

The data set relates to rituximab (MabThera, anti-CD20 chimeric mouse/human IgG1) (chimeric mouse/human). Put plainly: ELASA. Particulars: 80°C 1 min; ELASA on protein A plates, antibody 4 ug/ml; aptamers folded in 20 mM Tris pH 7.6, 100 mM NaCl, 2 mM MgCl2, 5 mM KCl, 1 mM CaCl2, 0.02% Tween 20, then diluted ….

As usually defined, the Kd is the constant that tells how readily two partners part at equilibrium. A higher Kd goes with lower affinity. In turn, “GGCCATTGTGGACTTCTTTGGGTAATTCAGGGGCTCGATT [C7]” gave a Kd of 8.8 nM.

Take “ACTTCGGCTAGTTAGGGGGTAGTTTAGATCGTCTCTACAT [C10]”: the Kd was 17.6 nM.
